B1: CR000442: gRNA targeting human B2M; targeting domain SEQ ID NO: 134; sgRNA SEQ ID NO: 171 (nucleic acid)
guide: GGCCACGGAGCGAGACAUCUGUUUUAGAGCUAGAAAUAGCAAGUUAAAAUAAGGCUAGUCCGUUAUCAACUUGAAAAAGUGGCACCGAGUCGGUGCUUUU
modifications: listed as RNA, chemistry not given here
B2: CR000455: gRNA targeting human B2M; targeting domain SEQ ID NO: 138; sgRNA SEQ ID NO: 175 (nucleic acid)
guide: UUACCCCACUUAACUAUCUUGUUUUAGAGCUAGAAAUAGCAAGUUAAAAUAAGGCUAGUCCGUUAUCAACUUGAAAAAGUGGCACCGAGUCGGUGCUUUU
modifications: listed as RNA, chemistry not given here
B3: CR000443: gRNA targeting human B2M; targeting domain SEQ ID NO: 135; sgRNA SEQ ID NO: 172 (nucleic acid)
guide: CGCGAGCACAGCUAAGGCCAGUUUUAGAGCUAGAAAUAGCAAGUUAAAAUAAGGCUAGUCCGUUAUCAACUUGAAAAAGUGGCACCGAGUCGGUGCUUUU
modifications: listed as RNA, chemistry not given here
B4: CR000446: gRNA targeting human B2M; targeting domain SEQ ID NO: 136; sgRNA SEQ ID NO: 173 (nucleic acid)
guide: AGGGUAGGAGAGACUCACGCGUUUUAGAGCUAGAAAUAGCAAGUUAAAAUAAGGCUAGUCCGUUAUCAACUUGAAAAAGUGGCACCGAGUCGGUGCUUUU
modifications: listed as RNA, chemistry not given here
B5: CR000453: gRNA targeting human B2M; targeting domain SEQ ID NO: 137; sgRNA SEQ ID NO: 174 (nucleic acid)
guide: CACAGCCCAAGAUAGUUAAGGUUUUAGAGCUAGAAAUAGCAAGUUAAAAUAAGGCUAGUCCGUUAUCAACUUGAAAAAGUGGCACCGAGUCGGUGCUUUU
modifications: listed as RNA, chemistry not given here
B6: CR000456: gRNA targeting human B2M; targeting domain SEQ ID NO: 139; sgRNA SEQ ID NO: 176 (nucleic acid)
guide: CUUACCCCACUUAACUAUCUGUUUUAGAGCUAGAAAUAGCAAGUUAAAAUAAGGCUAGUCCGUUAUCAACUUGAAAAAGUGGCACCGAGUCGGUGCUUUU
modifications: listed as RNA, chemistry not given here

Tests used:
[1] = tested on: B2M; assay: Targeted PCR and NGS (amplicon sequencing) of on-target and off-target sites in genome-edited LSCs; type: cell-based, human; settings: for validated indels for off-target activity in LSCs: amplicon sequencing of potential off-target loci; for Number of sites positive for off-target activity in LSCs: of the potential off-target loci sequenced; for B2M purified rhAmpSeq indel: purified (B2M negative) LSC populations
Description: Potential CRISPR/Cas9-mediated cutting sites identified above were evaluated using targeted PCR and NGS in genome-edited expanded LSCs.
Selected sgRNAs (SEQ ID NO: 120, 162, 166, 167, 171, and 175) were further analyzed by amplicon sequencing in edited and non-edited cells. Primers flanking the potential off-target sites for each guide were used to detect indels by NGS analysis in edited LSCs and non-edited peripheral blood mononuclear cells. Sites that had either (1) a difference in mean indel percentage between edited and unedited cells greater than 0.5%; or (2) a p value less than 0.05 between edited and unedited indel were further analyzed. NGS sequence reads for such sites were assessed for characteristic indel patterns near the putative Cas9 cut site. Based on the results, we could assess the specificity of gRNAs and their suitability for therapeutic applications.

[2] = tested on: B2M; assay: sgRNA screening for B2M knockout in LSCs (nucleofection, FACS); type: cell-based, human; settings: Cas9 protein SEQ ID NO: 106, LSCs at passage 3, FACS after around 3 days
Description: Cells were cultured under these conditions for 24-48 hours at 37° C. in 5% CO2.
LSCs were nuclofected with selected gRNAs (Table 6) followed by FACS analysis / MACS separation.
After scraping the cells, the reaction was stopped by using cell culture medium containing 10% Serum and transferred to a falcon tube. After counting cells using Vi-cell 300′000 cells were prepared per reaction by transferring 300′000 cells in single tubes and centrifuged at 1000 rpm for 5 min. The supernatant was aspirated using manually pipetting to avoid cell loss and the cells were resuspended in the Stem cell nucleofector solution II (Lonza, Cat #VPH-5022). Resuspend cells in nucleofector solution immediately before adding the Cas9 RNP:sgRNA mixture. To obtain the nucleofection mixture, 5 µg high concentrated (≥5 µg/µl) Cas9 protein of SEQ ID NO: 106 (volume = 0.78 µl) was mixed with 19.5 µg sgRNA of Table 6 (volume = 12.2 µl) and incubated for 20 min at room temperature. […] The Cas9 protein-guideRNA complex was added to the cell suspension and transferred to the electroporation cuvette immediately. Cells were transfected using the nucelofector device (Lonza, Amaxa Nucleofector II) and program A023. After nucleofection cells were transferred from cuvette to one well of a 24 well synthemax coated plate containing pre-warmed LSC medium including 3 µM LATS compound and 10 µM Rock inhibitor Y-27632 (Nature 1997, vol. 389, pp. 990-994). Incubate LSCs in a 5% CO2 incubator for around 3 days until cells are 90% confluent.
LSCs were treated with TryLE®Express Enzym (ThermoFisher, Cat #12605010) for 15 minutes in 5% CO2 at 37° C. After scraping the cells, the reaction was stopped by using cell culture medium containing 10% Serum and transferred to a falcon tube for a centrifugation step (1000 rpm, 5 minutes). After aspirating the medium cells were resuspended in 200 µl FACS buffer (PBS/10%FBS).
To analyze the expression of B2M and HLA-ABC, 5 µl APC mouse anti-human β2-microglobulin antibody (Biolegend, Cat#316312) and 20 µl PE mouse anti-human HLA-ABC antibody (BD Bioscience, Cat # 560168) were added to the cell suspension and incubated for 30 minutes on ice.
Cells were washed 3 times after antibody labelling with FACS buffer and resuspended in 200 µl in FACS buffer (depending on the cell number).
FACS data were analyzed using BD FACSDiva software and FlowJo software.

[3] = tested on: genomic DNA purified from male human peripheral blood mononuclear cells; assay: Biochemical assay for potential off-target genomic sites cleaved by Cas9 and B2M guides; settings: number of potential off-target sites, guide concentration 64 nM
Description: A biochemical method (See, e.g., Cameron et al., Nature Methods. 6, 600-606; 2017) was used to determine potential off-target genomic sites cleaved by Cas9 and selected B2M guides. Guides showing B2M indel activity were tested for potential off-target genomic cleavage sites with this assay. […] The number of potential off-target sites detected using a guide concentration of 64 nM in the biochemical assay are shown in Table 10. As a result of this analysis, several gRNAs were selected for analysis of potential off-target activity in limbal stem cells.

Molecule	validated indels for off-target activity in LSCs [1]	Number of sites positive for off-target activity in LSCs [1]	Number of sites positive for off-target activity in LSCs ([1]; listed as SEQ ID NO: 171)	B2M purified rhAmpSeq indel [1] [%]	B2M purified rhAmpSeq indel ([1]; listed as SEQ ID NO: 171)	B2M knockout efficiency in LSCs after nucleofection [2] [%]	off-target Site_ Count [3]	Number of sites positive for off-target activity in LSCs ([1]; listed as SEQ ID NO: 175)	B2M purified rhAmpSeq indel ([1]; listed as SEQ ID NO: 175)
B1	zero	0 of 28	no predicted sites tested positive for off-target activity	99.10±0.26	~ 99%	62	29	–	–
B2	zero	0 of 46	–	99.33±0.32	–	24	48	no predicted sites tested positive for off-target activity	~ 99%
B3	–	–	–	–	–	25	117	–	–
B4	–	–	–	–	–	27	98	–	–
B5	–	–	–	–	–	5	82	–	–
B6	–	–	–	–	–	3	66	–	–

From patent US20230348852A1, “METHODS AND COMPOSITIONS FOR OCULAR CELL THERAPY” (NOVARTIS AG, priority 2020, published 2023)
